In paper PMC9482650, “Quantitative fragmentomics allow affinity mapping of interactomes” (Nature Communications, 2022):

Tests used:
Test in all cases: holdup assay
Parameters in all cases: key: below the threshold = too weak to quantify, mostly under pKd 3.1 to 4
Conditions in all cases: plain residues with an end cap or a label only (N-terminal biotin on a linker: ado-ado)
GRIP1_3, Q9Y3R0 = target: T1, GRIP1_3, Q9Y3R0
T1 sequence (Q9Y3R0 247-346, limits assumed, looked up): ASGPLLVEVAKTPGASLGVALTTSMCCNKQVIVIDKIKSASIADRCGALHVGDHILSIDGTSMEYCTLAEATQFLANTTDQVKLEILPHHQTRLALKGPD

RHPN1, Q8TCX5 = target: T2, RHPN1, Q8TCX5
T2 sequence (Q8TCX5 508-602, limits assumed, looked up): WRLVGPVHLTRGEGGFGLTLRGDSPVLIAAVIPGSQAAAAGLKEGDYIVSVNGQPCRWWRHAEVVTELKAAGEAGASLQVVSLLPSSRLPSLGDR

DLG5_1, Q8TDM6 = target: DLG5_1, Q8TDM6
PCLO, Q9Y6V0 = target: T3, PCLO, Q9Y6V0
T3 sequence (Q9Y6V0 4491-4600, limits assumed, looked up): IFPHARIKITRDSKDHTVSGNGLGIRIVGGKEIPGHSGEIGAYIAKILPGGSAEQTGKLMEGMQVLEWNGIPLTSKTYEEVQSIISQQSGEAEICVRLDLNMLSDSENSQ

GRIP2_7, Q9C0E4 = target: GRIP2_7, Q9C0E4
MAGI2_3, Q86UL8 = target: MAGI2_3, Q86UL8
GRIP1_7, Q9Y3R0 = target: T4, GRIP1_7, Q9Y3R0
T4 sequence (Q9Y3R0 999-1096, limits assumed, looked up): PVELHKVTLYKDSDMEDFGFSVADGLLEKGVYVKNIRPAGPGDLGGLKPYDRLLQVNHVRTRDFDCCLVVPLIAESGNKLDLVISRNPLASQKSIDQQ

GRID2IP_2, A4D2P6 = target: GRID2IP_2, A4D2P6
DLG2_2, Q15700 = target: DLG2_2, Q15700
MAGI2_4, Q86UL8 = target: MAGI2_4, Q86UL8
MAST1, Q9Y2H9 = target: MAST1, Q9Y2H9
LRRC7, Q96NW7 = target: T5, LRRC7, Q96NW7
T5 sequence (Q96NW7 1440-1537, limits assumed, looked up): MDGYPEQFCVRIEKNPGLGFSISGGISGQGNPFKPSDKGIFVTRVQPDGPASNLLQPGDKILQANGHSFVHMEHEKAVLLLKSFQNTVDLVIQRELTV

NHERF3_3, Q5T2W1 = target: T6, NHERF3_3, Q5T2W1
T6 sequence (Q5T2W1 238-333, limits assumed, looked up): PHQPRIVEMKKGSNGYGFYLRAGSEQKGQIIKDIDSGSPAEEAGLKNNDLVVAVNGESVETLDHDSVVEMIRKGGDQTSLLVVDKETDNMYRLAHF

SYNJ2BP, P57105 = target: T7, SYNJ2BP, P57105
T7 sequence (P57105 8-110, limits assumed, looked up): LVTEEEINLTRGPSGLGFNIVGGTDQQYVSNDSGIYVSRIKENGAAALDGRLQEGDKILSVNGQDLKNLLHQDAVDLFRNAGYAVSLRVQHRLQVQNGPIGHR

NHERF3_4, Q5T2W1 = target: T8, NHERF3_4, Q5T2W1
T8 sequence (Q5T2W1 373-468, limits assumed, looked up): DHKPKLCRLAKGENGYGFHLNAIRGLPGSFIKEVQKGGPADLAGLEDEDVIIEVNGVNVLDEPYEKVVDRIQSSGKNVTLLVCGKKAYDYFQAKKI

TX1BP3, O14907 = target: T9, TX1BP3, O14907
T9 sequence (O14907 10-122, limits assumed, looked up): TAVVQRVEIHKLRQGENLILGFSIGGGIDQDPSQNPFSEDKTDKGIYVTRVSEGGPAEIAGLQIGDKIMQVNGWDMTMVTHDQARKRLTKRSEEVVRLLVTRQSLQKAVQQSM

Inadl_5, Q8NI35 = target: Inadl_5, Q8NI35
MPP7, Q5T2T1 = target: T10, MPP7, Q5T2T1
T10 sequence (Q5T2T1 134-230, limits assumed, looked up): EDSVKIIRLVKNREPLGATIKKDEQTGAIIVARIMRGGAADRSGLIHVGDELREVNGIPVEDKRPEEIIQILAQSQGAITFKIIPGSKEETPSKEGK

MPDZ_5, O75970 = target: T11, MPDZ_5, O75970
T11 sequence (O75970 695-796, limits assumed, looked up): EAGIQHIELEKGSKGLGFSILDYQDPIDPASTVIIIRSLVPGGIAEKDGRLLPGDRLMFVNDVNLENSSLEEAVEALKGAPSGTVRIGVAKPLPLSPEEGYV

LIMK2, P53671 = target: LIMK2, P53671
SNTA1, Q13424 = target: T12, SNTA1, Q13424
T12 sequence (Q13424 82-180, limits assumed, looked up): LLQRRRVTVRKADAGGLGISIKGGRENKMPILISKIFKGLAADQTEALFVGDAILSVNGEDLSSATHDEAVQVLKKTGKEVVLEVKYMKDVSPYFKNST

PDZRN4_1, Q6ZMN7 = target: PDZRN4_1, Q6ZMN7
DLG1_2, Q12959 = target: DLG1_2, Q12959
HTRA1, Q92743 = target: HTRA1, Q92743
DLG2_3, Q15700 = target: DLG2_3, Q15700

Chain of Inadl_5, Q8NI35 (Q8NI35 673-780): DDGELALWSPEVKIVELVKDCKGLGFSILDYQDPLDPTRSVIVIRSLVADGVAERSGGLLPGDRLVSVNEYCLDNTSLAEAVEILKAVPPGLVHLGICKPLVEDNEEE
Chain of DLG5_1, Q8TDM6 (Q8TDM6 617-713): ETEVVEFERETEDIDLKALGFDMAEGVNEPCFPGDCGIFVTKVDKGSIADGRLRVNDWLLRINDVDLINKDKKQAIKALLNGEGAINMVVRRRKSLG
Chain of GRID2IP_2, A4D2P6 (A4D2P6 272-370): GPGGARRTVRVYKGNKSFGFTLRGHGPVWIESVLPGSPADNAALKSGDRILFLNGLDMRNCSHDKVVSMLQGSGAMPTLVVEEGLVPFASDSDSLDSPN
Chain of MAGI2_3, Q86UL8 (Q86UL8 600-682): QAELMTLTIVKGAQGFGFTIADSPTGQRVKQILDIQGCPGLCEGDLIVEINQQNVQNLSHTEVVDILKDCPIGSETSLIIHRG
Chain of GRIP2_7, Q9C0E4 (Q9C0E4 934-1023): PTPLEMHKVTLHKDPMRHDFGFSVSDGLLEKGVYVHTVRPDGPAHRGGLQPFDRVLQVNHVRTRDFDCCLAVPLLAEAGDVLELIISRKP
Chain of LIMK2, P53671 (P53671 143-248): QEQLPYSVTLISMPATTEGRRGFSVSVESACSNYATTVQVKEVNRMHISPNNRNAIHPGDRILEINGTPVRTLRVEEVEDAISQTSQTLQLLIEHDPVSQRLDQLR
Chain of MAST1, Q9Y2H9 (Q9Y2H9 962-1065): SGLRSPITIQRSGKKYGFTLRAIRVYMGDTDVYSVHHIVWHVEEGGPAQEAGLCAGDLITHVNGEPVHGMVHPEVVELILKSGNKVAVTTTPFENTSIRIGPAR
Chain of MAGI2_4, Q86UL8 (Q86UL8 772-865): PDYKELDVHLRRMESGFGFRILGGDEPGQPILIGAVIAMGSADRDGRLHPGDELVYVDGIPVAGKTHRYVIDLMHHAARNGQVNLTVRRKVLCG
Chain of DLG1_2, Q12959 (Q12959 314-412): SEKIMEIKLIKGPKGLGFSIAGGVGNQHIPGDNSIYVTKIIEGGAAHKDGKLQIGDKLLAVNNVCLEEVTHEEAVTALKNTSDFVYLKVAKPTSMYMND
Chain of PDZRN4_1, Q6ZMN7 (Q6ZMN7 213-318): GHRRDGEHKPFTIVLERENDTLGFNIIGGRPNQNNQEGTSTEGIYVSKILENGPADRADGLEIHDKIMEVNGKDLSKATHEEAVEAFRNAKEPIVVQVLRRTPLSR
Chain of HTRA1, Q92743 (Q92743 360-477): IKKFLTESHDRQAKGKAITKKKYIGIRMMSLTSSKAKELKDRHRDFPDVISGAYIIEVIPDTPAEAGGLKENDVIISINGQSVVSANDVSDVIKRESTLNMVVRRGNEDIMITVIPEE

Binder: YLEPVLSSEL [ATP2A2, P16615;P16615-3]
- pKd (GRIP1_3, Q9Y3R0): below the threshold
- pKd (RHPN1, Q8TCX5): 4.24
- pKd (DLG5_1, Q8TDM6): below the threshold
- pKd (PCLO, Q9Y6V0): below the threshold
- pKd (GRIP2_7, Q9C0E4): below the threshold
- pKd (MAGI2_3, Q86UL8): below the threshold
- pKd (GRIP1_7, Q9Y3R0): below the threshold
- pKd (GRID2IP_2, A4D2P6): 4.22
- pKd (DLG2_2, Q15700): below the threshold
- pKd (MAGI2_4, Q86UL8): below the threshold
- pKd (MAST1, Q9Y2H9): 4.83
- pKd (LRRC7, Q96NW7): below the threshold
- pKd (NHERF3_3, Q5T2W1): below the threshold
- pKd (SYNJ2BP, P57105): 4.24
- pKd (NHERF3_4, Q5T2W1): 4.8
- pKd (TX1BP3, O14907): 3.94
- pKd (Inadl_5, Q8NI35): below the threshold
- pKd (MPP7, Q5T2T1): below the threshold
- pKd (MPDZ_5, O75970): below the threshold
- pKd (LIMK2, P53671): below the threshold
- pKd (SNTA1, Q13424): below the threshold
- pKd (PDZRN4_1, Q6ZMN7): below the threshold
- pKd (DLG1_2, Q12959): below the threshold

Binder: KSGKQTMLVV [TRIM29, Q14134;Q14134-2]
- pKd (GRIP1_3, Q9Y3R0): below the threshold
- pKd (RHPN1, Q8TCX5): below the threshold
- pKd (DLG5_1, Q8TDM6): 3.93
- pKd (PCLO, Q9Y6V0): below the threshold
- pKd (GRIP2_7, Q9C0E4): below the threshold
- pKd (HTRA1, Q92743): 4.42
- pKd (MAGI2_3, Q86UL8): below the threshold
- pKd (DLG2_3, Q15700): below the threshold
- pKd (GRIP1_7, Q9Y3R0): below the threshold
- pKd (GRID2IP_2, A4D2P6): below the threshold
- pKd (MAST1, Q9Y2H9): below the threshold
- pKd (LRRC7, Q96NW7): below the threshold
- pKd (SYNJ2BP, P57105): below the threshold
- pKd (NHERF3_4, Q5T2W1): below the threshold
- pKd (Inadl_5, Q8NI35): below the threshold
- pKd (MPP7, Q5T2T1): below the threshold
- pKd (MPDZ_5, O75970): below the threshold
- pKd (LIMK2, P53671): below the threshold

Binder: LPAHHNATRL [SLC34A1, Q06495;Q06495-1]
- pKd (GRIP1_3, Q9Y3R0): below the threshold
- pKd (DLG5_1, Q8TDM6): below the threshold
- pKd (PCLO, Q9Y6V0): below the threshold
- pKd (GRIP2_7, Q9C0E4): below the threshold
- pKd (MAGI2_3, Q86UL8): below the threshold
- pKd (DLG2_3, Q15700): below the threshold
- pKd (GRIP1_7, Q9Y3R0): below the threshold
- pKd (GRID2IP_2, A4D2P6): 4.13
- pKd (DLG2_2, Q15700): below the threshold
- pKd (MAGI2_4, Q86UL8): below the threshold
- pKd (MAST1, Q9Y2H9): 4.84
- pKd (LRRC7, Q96NW7): below the threshold
- pKd (NHERF3_3, Q5T2W1): 4.47
- pKd (SYNJ2BP, P57105): below the threshold
- pKd (NHERF3_4, Q5T2W1): 4.09
- pKd (TX1BP3, O14907): below the threshold
- pKd (Inadl_5, Q8NI35): below the threshold
- pKd (MPP7, Q5T2T1): below the threshold
- pKd (MPDZ_5, O75970): below the threshold
- pKd (LIMK2, P53671): below the threshold
- pKd (PDZRN4_1, Q6ZMN7): 4.2
- pKd (DLG1_2, Q12959): below the threshold
